Assay [1] concerns the target T1, recombinant human BAFF-Fc (Sino Biological) (human, UniProt Q9Y275 134-285).
T1 construct: Bought reagent; also called hBAFF; not shown: Fc moiety detected by anti-human Fc
In words: ELISA, periplasmic extract on coated BAFF-Fc (1 µg/mL), anti-FLAG-HRP. As for the experimental part: (§1) After selection rounds three and four, 93 individual clones were picked and grown in 96 deep-well plates in auto-induction medium (Novagen). Periplasmic protein was extracted by osmotic shock as described in Müller M R et al. (Generation and isolation of target-specific single-domain antibodies from shark immune repertoires. Methods Mol Biol. 2012; 907:177-94) and directly used in a binding ELISA. Briefly, Nunc Maxisorp 96-well plates were coated at 1 μg/mL with either BAFF-Fc or HSA and periplasmic fraction, pre-blocked in PBS-0.1% Tween+2.5% milk, was exposed to the coated surface. After washing in PBS-0.1% Tween, bound VNARs were detected using a peroxidase-conjugated anti-FLAG antibody (Sigma). Absorbance at 450 nm was recorded using an Envision multiwell reader (Perkin Elmer) and BAFF-specific clones were selected using the criteria: BAFF signal/HSA signal ≥4. The DNA sequence of positive clones was determined by the Sanger chain termination method (GATC biotech), using the specific oligonucleotide 5′-[…]-3′. Protein alignments were performed using the BioEdit software.
For orientation: An ELISA detects its analyte on a solid surface through an enzyme-linked reagent.

The target of assay [2] is T2, human serum albumin (Sigma) (human, UniProt P02768 25-609).
T2 construct: Negative control coat; also called HSA
Briefly: ELISA, periplasmic extract on coated HSA (1 µg/mL), anti-FLAG-HRP. As for the experimental part:
as §1

The target of assay [3] is T1, recombinant human BAFF-Fc (Sino …). In words: blocking ELISA, VNAR diluted with 1.14 nM BAFF-Fc; binding of BAFF-Fc to coated BAFF-R extracellular domain.
For assay [4] the target is unchanged. Briefly: ELISA, purified monomeric VNAR on coated BAFF-Fc, anti-FLAG detection.
Assay [5] has as its target T3, APRIL (Sigma) (UniProt O75888 105-250, limits assumed).
T3 sequence (looked up): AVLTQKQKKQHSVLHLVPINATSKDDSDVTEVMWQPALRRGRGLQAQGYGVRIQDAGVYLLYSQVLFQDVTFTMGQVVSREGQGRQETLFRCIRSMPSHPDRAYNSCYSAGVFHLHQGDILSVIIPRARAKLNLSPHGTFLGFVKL
In words: ELISA, periplasmic extract on coated APRIL (1 µg/mL), anti-FLAG-HRP. As for the experimental part: Clones blocking the interaction between BAFF and its three receptors were tested for their ability to cross-react with BAFF's closest related protein, APRIL. Clones were grown in a 96 well format, periplasmic fraction was extracted by osmotic shock as previously described and directly used in a binding ELISA. Nunc Maxisorp 96 well plates were coated at 1 μg/mL with either BAFF-Fc (Sino Biological), HSA (Sigma), or APRIL (Sigma) and periplasmic fraction, pre-blocked in PBS-0.1% Tween+2.5% Milk, was exposed to the coated surface. After washing in PBS-0.1% Tween, bound VNARs were detected using a peroxidase-conjugated anti-FLAG antibody (Sigma). Absorbance at 450 nm was recorded using an Envision multiwell reader (Perkin Elmer).

In assay [6] the target is T2, human serum albumin (Sigma). In words: ELISA, periplasmic extract on coated HSA (1 µg/mL), anti-FLAG-HRP. This is another data set of the same source.
In assay [7] the target is T1, recombinant human BAFF-Fc (Sino …). Briefly: blocking ELISA, binding of BAFF-Fc to coated BR3 (BAFF-R); repeats Table 2.
Assay [8] shares this target. In words: blocking ELISA, VNAR diluted with 0.5 nM BAFF-Fc; binding of BAFF-Fc to coated BCMA. The procedure:
(§2) The pre-blocked proteins were then exposed to Nunc Maxisorp 96 well plates which were coated at 1 μg/mL with the recombinant human TACI or BCMA (Peprotech), preblocked in (PBS-0.1% Tween+2.5% Milk). After washing in PBS-0.1% Tween, BAFF bound to its receptor was detected via its Fc moiety using a peroxidase-conjugated anti-human Fc (Sigma). Absorbance at 450 nm was recorded using an Envision multiwell reader (Perkin Elmer) and IC50 values were calculated by fitting the curves (non-linear regression) using GraphPad Prism®. The results are shown in FIG. 15 and the fitted IC50 values are tabulated below.

For assay [9] the target is unchanged. Briefly: blocking ELISA, VNAR diluted with 0.5 nM BAFF-Fc; binding of BAFF-Fc to coated TACI. The procedure: as §2
Assay [10] shares this target. In words: cell-based or functional assay.
In assay [11] the target is recombinant mouse BAFF (R&D Systems) (mouse, UniProt Q9WU72 127-309). In words: Mouse cross-reactivity grade (binds to both human and mouse BAFF); assay not described.

This note sets out measurements from patent US20200024354A1 (OSSIANIX, published 2020).

Like-named read-outs stand apart in the source and are kept apart here.

T1 sequence (Q9Y275 134-285): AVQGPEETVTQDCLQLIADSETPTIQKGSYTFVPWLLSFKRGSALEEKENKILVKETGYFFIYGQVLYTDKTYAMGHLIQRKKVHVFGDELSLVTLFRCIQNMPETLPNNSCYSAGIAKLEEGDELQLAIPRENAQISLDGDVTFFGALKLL
T2 sequence (P02768 25-609 limits assumed): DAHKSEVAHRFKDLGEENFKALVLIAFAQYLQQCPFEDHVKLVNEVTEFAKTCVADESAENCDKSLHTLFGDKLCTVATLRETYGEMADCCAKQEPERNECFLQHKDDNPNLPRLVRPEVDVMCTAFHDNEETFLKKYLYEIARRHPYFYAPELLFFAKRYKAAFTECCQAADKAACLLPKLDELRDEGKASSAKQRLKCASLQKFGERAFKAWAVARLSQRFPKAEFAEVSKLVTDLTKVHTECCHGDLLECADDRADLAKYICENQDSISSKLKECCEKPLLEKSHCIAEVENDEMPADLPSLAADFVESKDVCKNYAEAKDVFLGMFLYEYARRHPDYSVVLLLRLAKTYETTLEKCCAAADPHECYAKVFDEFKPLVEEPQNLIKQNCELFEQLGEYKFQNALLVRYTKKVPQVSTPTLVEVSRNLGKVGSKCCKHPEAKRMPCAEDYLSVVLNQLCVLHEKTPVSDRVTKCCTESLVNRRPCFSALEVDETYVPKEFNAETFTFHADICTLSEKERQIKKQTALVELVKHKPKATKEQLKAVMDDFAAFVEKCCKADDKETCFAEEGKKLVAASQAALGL
recombinant mouse BAFF (R&D Systems), sequence (Q9WU72 127-309 limits assumed): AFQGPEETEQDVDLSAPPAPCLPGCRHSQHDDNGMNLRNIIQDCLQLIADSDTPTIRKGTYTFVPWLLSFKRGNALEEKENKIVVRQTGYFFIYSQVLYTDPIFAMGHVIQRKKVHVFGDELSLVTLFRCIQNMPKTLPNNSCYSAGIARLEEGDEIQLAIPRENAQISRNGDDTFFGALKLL

B1: ID2-101C03 (VNAR)
chain: AQAAARVDQTPRSVTKETGESLTINCVLRDSICALSSTHWYRKKSGSTNEESISLGGRYVETVNSGSKSFSLKINDLTVEDSGTYRCKVTRYVVFSGSTCRMRRADVYGGGTVVTMNAASGAHHHHHHGADYKDDDDK
notes: Nurse shark VNAR single domain, monomer in periplasmic extract
For B1, the binding result in assay [1] is “binds”.

B2: ID2-101C02 (VNAR)
VNAR: AARVDQTPQTITKETGESLTINCVLRDNNCALSTTYWYRKKSGSTNEENISKGGRYVETVNSGSKSFSLKINDLTVKDSGTYRCKVTRDPLFCSYRASKRHDVYGGGTVVTVNA
notes: as for B1
For B2, the binding result in assay [1] was “binds”.

B3: ID2-101B05 (VNAR)
VNAR: AARVDQTPRSVTKETGESLTINCVLRDSICALSSTHWYRKKSGSTNEESISKGGRYVETVNSGSKSFSLRINDLTVEDSGTYRCKVNHDLLTSSRRCQSQIKDVYGGGTVVTVNA
notes: Nurse shark VNAR single domain, monomer
What is called IC50 is the concentration that gives 50% inhibition. What is called EC50 is the concentration giving half of the maximal effect. With B3, the binding result in assay [2] and in [5] was “no binding” throughout. Moreover, in assay [3], the IC50 came to 148 nM. Further, in [4], the EC50 turned out to be 11.8 nM.

B4: ID2-101B07 (VNAR)
VNAR: AARVDQTPRSVTKETGESLTINCVLRDSICALSSTHWYRKKSGSTNEESISKGGRYVETVNSGSKSFSLRINDLTVEDSGTYRCKVHGGRSTGLCGDVLLAGDVYGGGTAVTVNA
notes: as for B3
On to B4, for which the binding result in assay [6] is on record as “no binding”. The 50% inhibitory concentration (IC50) turned out to be 6.8 nM in [7], 6.8 nM in assay [3], 18.9 nM in assay [8] and 24 nM in assay [9]. In addition, in assay [4], the EC50 was determined as 0.8 nM. For the same molecule, the “CELLULAR IC50” value in assay [10] is 60 nM.

B5: ID2-101A05 (VNAR)
VNAR: AARVDQTPQTITKETGESLTINCVLRDNNCALSTTYWYRKKSGSTNEENISKGGRYVETVNSGSKSFSLRINDLTVEDSGTYRCKVSKDWLLCRDRGRRETDVYGDGTAVTVNA
notes: Nurse shark VNAR single domain, tested as monomer
Take B5: the results for the binding result in assay [2], in assay [11] and in [5] were “no binding”, “binds” and “no binding”, respectively. In addition, the IC50 in [7] is 13.8 nM; in assay [3], 13.8 nM; in assay [8], 17.4 nM; in assay [9], 57.8 nM. The EC50 in [4] came to 1.5 nM. The “CELLULAR IC50” value in assay [10] was determined as 135 nM.

B6: ID2-101B01 (VNAR)
VNAR: AARVDQTPQTITKETGESLTINCVLRDSNCALSSTYWYRKKSGSTNEESISKGGRYVETVNSGSKSFSLRINDLTVEDSGTYRCNVAPTIISGCSIKRRDVYGGGTAVTVNA
notes: as for B3
For B6, in assay [2], the binding result is on record as “no binding”. The IC50 in assay [3] stood at 91.2 nM. The EC50 in assay [4] was found to be 7.4 nM.

B7: ID2-101A01 (VNAR)
VNAR: AARVDQTPQTITKETGESLTINCVLRDSNCALSNLYWYRKKSGSTNEESISLGGRYVETVNSGSKSFSLRINDLTVEDSGTYRCKVRRARVIGGEYCRVQWQDVYGGGTAVTVNA
notes: as for B1
Turning to B7, in assay [1], the binding result is given as “binds”.

B8: ID2-101A03 (VNAR)
VNAR: AARVDQTPQTITKETGESLTINCVLRDNNCALSTTYWYRKKSGSTNEENISKGGRYVETVNSGSKSFSLKINDLTVEDSGTYRCKVRVDRLLCGWRVGRRQLGDVYGGGTVVTVNA
notes: as for B3
On to B8, for which the binding result in assay [2] and in [5] was “no binding” throughout. Moreover, the IC50 in assay [3] worked out at 12.3 nM. The EC50 in [4] was 17.2 nM.

B9: ID2-101B03 (VNAR)
VNAR: AARVDQTPRSVTKETGESLTINCVLRDNNCALSTTYWYRKKSGSTNEENISKGGRYVETVNSGSKSFSLRINDLTVEDSGTYRCKVKPDLLFCSSSGLGLIQDVYGGGTAVTVNA
notes: as for B1
On to B9, for which the binding result in assay [1] is “binds”.

B10: ID2-101A12 (VNAR)
VNAR: AARVDQTPQTVTKETGESLTINCVLRDASYALGSTCWYRKKSGSRNEESISKGGRYVETVNSGSKSFSLRINDLTVEDSGTYRCKVRDPLLFPRDRCDGESKDVYGGGTVVTVNA
notes: as for B3
Regarding B10, the binding result in [6] was “no binding”. Also, the IC50 in [3] turned out to be 49.2 nM. The EC50 in [4] turned out to be 4.57 nM.

B11: ID2-101B12 (VNAR)
VNAR: AARVDQTPQTITKETGESLTINCVLRDSNCALSSTYWYRKKSGSTNEESISKGGRYVETVNSGSKSFSLRINDLTVEDSGTYRCKVFIDPLLCSRDALGFSDVYGDGTAVTVNA
notes: as for B3
In the case of B11, the binding result in assay [2] and in [5] was “no binding” each time. The IC50 in [3] came out at 9.32 nM. For the same molecule, the 50% effective concentration (EC50) in assay [4] was determined as 2.7 nM.

B12: ID2-101B11 (VNAR)
VNAR: AARVDQTPRSVTKETGESLTINCVLRDSNCALSSTYWYRKKSGSTNEENISKGGRYVETVNSGSKSFSLRINDLTVEDSGTYRCKVMLDPLLCPALLESMTDVYGGGTAVTVNA
notes: as for B3
For B12, the binding result in assay [2] and in assay [5] was “no binding” throughout. In assay [3], the IC50 came out at 6.85 nM. For the same molecule, the concentration giving a half-maximal response (EC50) in [4] amounted to 2.49 nM.

B13: ID2-101B10 (VNAR)
VNAR: AARVDQTPQTITKETGESLTINCVLRDSNCALSSTYWYRKKSGSTNEESISKGGRYVETVNSGSKSFSLRINDLTVEDSGTYRCKVRIDPLLCNASYVKWDDVYGGGTVVTVNA
notes: as for B3
Take B13: the binding result was “no binding” in [2], “binds” in assay [11] and “no binding” in assay [5]. Also, the IC50 was 2.8 nM in assay [7], 2.8 nM in [3], 10.5 nM in assay [8] and 14.1 nM in [9]. The EC50 in assay [4] was 1 nM. In assay [10], the “CELLULAR IC50” value is about 100 nM.

B14: ID2-101C01 (VNAR)
VNAR: AARVDQTPQTITKETGESLTINCVLRDNNCALSTTYWYRKKSGSTNEENISKGGRYVETVNSGSKSFSLRINDLTVEDSGTYRCKVRLDLLLCRNGSTNSIDVYGGGTAVTVNA
notes: as for B3
Take B14: the binding result in assay [2] is recorded as “no binding”. The IC50 in assay [3] amounted to 3.85 nM. Besides, in assay [4], the EC50 worked out at 2.13 nM.

B15: ID2-101A07 (VNAR)
VNAR: AARVDQTPQTITKETGESLTINCVLRDSNCALSNLYWYRKKSGSTNEESISLGGRYVETVNSGSKSFSLRINDLTVEDSGTYRCKVQLPYDPLTKECILGRMDVYGDGTAVTVNA
notes: as for B5
B15: the binding result in [2] and in [5] was “no binding” throughout. Moreover, the IC50 in [7] worked out at 6.8 nM; in assay [3], 6.8 nM; in assay [8] it was 24.5 nM; in assay [9], 82.7 nM. In addition, the EC50 in [4] is 0.5 nM. The “CELLULAR IC50” value in assay [10] came to 58 nM.
